Measurements: IntAct's records for PubMed 32296183

How the values were obtained:
[1] = molecular target: T1, jam1_human F11R (UniProt Q9Y624)
T1 sequence: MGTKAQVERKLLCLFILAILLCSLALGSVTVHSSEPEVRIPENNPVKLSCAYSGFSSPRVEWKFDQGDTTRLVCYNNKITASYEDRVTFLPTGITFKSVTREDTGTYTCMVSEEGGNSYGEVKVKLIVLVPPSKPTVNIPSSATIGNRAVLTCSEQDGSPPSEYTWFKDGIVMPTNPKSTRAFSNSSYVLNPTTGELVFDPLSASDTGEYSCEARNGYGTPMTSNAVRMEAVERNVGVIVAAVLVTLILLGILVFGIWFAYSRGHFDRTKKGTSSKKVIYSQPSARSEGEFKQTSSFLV

[2] = molecular target: T2, ssmm1_human SSMEM1 (UniProt Q8WWF3)
T2 sequence: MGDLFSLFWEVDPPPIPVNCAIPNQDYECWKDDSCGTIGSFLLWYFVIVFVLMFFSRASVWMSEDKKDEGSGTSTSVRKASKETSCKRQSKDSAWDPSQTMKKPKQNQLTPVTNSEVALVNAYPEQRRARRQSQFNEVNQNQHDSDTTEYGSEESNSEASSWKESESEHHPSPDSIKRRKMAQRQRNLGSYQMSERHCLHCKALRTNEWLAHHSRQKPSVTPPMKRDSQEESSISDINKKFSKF

[3] = molecular target: cxa5_human GJA5 (UniProt P36382)
[4] = molecular target: T3, kash5_human KASH5 (UniProt Q8N6L0)
T3 sequence: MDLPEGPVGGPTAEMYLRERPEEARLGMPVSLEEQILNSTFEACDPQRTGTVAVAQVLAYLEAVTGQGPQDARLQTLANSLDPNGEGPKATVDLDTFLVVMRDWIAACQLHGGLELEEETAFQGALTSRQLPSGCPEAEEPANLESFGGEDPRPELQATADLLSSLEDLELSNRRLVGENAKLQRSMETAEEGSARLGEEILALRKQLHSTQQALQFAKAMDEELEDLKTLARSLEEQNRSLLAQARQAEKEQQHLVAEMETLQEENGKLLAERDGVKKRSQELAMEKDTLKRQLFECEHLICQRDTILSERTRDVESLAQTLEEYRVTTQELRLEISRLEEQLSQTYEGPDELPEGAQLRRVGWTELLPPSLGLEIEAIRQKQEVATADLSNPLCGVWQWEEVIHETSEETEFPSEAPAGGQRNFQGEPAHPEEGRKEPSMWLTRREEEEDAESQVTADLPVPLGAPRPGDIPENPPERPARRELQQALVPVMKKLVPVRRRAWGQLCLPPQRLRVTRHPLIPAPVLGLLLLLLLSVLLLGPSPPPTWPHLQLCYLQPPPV

[5] = molecular target: comt_human COMT (UniProt P21964)
[6] = molecular target: T4, cld7_human CLDN7 (UniProt O95471)
T4 sequence: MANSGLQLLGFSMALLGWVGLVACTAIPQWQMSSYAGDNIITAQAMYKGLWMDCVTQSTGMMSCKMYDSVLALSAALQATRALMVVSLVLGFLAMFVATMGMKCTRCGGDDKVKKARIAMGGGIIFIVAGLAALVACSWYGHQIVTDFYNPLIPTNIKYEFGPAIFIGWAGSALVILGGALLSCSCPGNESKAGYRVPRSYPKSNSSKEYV

[7] = molecular target: T5, tmem9_human TMEM9 (UniProt Q9P0T7)
T5 sequence: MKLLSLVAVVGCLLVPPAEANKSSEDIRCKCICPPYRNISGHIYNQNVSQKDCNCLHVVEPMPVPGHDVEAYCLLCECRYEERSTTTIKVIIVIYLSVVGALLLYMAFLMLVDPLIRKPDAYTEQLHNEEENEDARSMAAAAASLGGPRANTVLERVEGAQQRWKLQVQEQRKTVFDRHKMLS

[8] = molecular target: T6, pdz1i_human PDZK1IP1 (UniProt Q13113)
T6 sequence: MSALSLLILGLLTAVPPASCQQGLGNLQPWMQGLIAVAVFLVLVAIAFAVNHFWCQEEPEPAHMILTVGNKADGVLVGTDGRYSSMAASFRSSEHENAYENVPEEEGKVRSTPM

- effect of a mutation on the interaction [1]: disrupting interaction strength
- effect of a mutation on the interaction [2]: with no effect
- effect of a mutation on the interaction [3]: with no effect
- effect of a mutation on the interaction [4]: disrupting interaction strength
- effect of a mutation on the interaction [5]: with no effect
- effect of a mutation on the interaction [6]: disrupting interaction strength
- effect of a mutation on the interaction [7]: with no effect
- effect of a mutation on the interaction [8]: with no effect
Substance: Acyltransferase PGAP2 (Homo sapiens) (from UniProt Q9UHJ9-5) T160I
